Assay [1] deals with T1, human recombinant IL-23 (human, UniProt P29460 23-328).
T1 construct: p19-p40 heterodimer; also called hrIL-23; hIL-23
T1 sequence 1: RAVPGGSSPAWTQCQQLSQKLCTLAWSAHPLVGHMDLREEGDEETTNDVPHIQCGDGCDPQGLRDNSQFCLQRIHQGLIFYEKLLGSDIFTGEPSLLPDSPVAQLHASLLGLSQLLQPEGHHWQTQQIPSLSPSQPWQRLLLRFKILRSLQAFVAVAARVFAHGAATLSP
T1 sequence 2: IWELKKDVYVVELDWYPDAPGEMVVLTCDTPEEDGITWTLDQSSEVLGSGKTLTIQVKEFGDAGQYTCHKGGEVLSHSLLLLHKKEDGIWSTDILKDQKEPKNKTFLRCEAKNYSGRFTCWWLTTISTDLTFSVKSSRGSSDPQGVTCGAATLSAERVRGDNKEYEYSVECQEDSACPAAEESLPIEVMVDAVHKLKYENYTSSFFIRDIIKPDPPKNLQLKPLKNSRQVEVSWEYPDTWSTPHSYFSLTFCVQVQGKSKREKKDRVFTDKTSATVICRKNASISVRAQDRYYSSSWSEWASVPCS
The assay is described as follows: blocking ELISA: biotinylated hrIL-23 preincubated with the titrated protein, binding to plate-immobilized IL-23R detected with HRP-streptavidin. As to the method: (§1) In this experiment, IL-23R was immobilized on a plate. Biotinylated hrIL-23 was added to the plate either alone or after preincubation with individual IL-23p19 mAbs. Soluble IL-23R (IL-23R-Fc) was used as a positive control. IL-23 binding was detected with HRP-conjugated streptavidin. […] In contrast, when IL-12Rβ1 was immobilized on a plate, none of the IL-23p19 mAbs were able to inhibit IL-23/IL-12Rβ1 binding (data not shown).

The target of assay [2] is T1, human recombinant IL-23. The description is as above. As to the method:
as §1
The source holds these as a separate data set.

For assay [3], the target named is T1, human recombinant IL-23. The assay is described as follows: ELISA: mAb immobilized on the plate, biotinylated IL-23 (bt.IL-23) titrated from about 0.01 to 100 ng/ml. On the technique in general: ELISA stands for enzyme-linked immunosorbent assay.
In the next assay the target is T2, human recombinant IL-12 (human, UniProt P29459 23-219; P29460 23-328).
T2 construct: p35-p40 heterodimer; also called hrIL-12
T2 sequence (looked up) 1: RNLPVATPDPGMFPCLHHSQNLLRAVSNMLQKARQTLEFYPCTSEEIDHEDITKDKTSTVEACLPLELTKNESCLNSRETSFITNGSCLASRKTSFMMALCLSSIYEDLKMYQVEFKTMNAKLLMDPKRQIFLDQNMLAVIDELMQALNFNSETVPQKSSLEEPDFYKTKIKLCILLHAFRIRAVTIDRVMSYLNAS
T2 sequence (looked up) 2: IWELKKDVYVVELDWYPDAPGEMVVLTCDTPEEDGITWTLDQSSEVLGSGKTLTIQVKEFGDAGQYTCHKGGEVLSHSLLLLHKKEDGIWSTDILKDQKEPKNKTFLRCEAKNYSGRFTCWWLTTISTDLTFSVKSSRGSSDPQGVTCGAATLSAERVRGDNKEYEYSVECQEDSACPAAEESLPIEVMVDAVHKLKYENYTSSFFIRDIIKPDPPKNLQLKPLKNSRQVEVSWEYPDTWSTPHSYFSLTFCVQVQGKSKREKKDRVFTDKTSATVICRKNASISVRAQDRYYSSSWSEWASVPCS
As to the kind of experiment: cytokine capture ELISA: mAb coated on the plate, cytokine at 100 ng/ml, detected with biotinylated anti-p40 mAb and HRP-streptavidin. Here is the method:
(§2) Purified mouse anti-human IL-23 mAbs were evaluated in cytokine capture ELISA to determine their antigen subunit specificity. Briefly, IL-23 mAbs were coated onto plates and incubated with 100 ng/ml (hr=human recombinant) hrIL-23, hrIL-12, and hrp40, respectively. Following incubation with biotinylated anti-p40 mAb, the binding was detected using HRP-conjugated streptavidin. An anti-p40 mAb and an anti-IL-12 mAb (20C2, Catalog No. 555065, BD Pharmingen, San Diego, Calif.) with known specificity were used as controls.

Assay [4] concerns the target T3, human recombinant p40 monomer (human, UniProt P29460 23-328).
T3 construct: also called hrp40
T3 sequence (looked up): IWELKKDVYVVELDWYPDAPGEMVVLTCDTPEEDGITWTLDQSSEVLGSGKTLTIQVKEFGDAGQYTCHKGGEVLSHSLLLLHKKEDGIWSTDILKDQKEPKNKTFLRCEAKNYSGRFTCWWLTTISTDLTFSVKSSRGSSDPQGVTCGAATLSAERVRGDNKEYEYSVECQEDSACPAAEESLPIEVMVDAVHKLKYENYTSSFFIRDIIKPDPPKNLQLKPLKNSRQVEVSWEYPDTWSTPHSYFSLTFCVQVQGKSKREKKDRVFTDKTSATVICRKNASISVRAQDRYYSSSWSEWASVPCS
The description is as above. Here is the method: as §2

Assay [5] has as its target T1, human recombinant IL-23. As to the kind of experiment: blocking ELISA: biotinylated hrIL-23 preincubated with the titrated mAb, binding to plate-immobilized IL-23R detected with HRP-streptavidin. As to the method: as §1
For assay [6], the target named is mutant human IL-23 protein 3220 (human) (UniProt P29460). As to the kind of experiment: MSD ELISA, coated IL-23 protein, Sulfo-TAG labeled mAb.
The target of assay [7] is mutant human IL-23 protein 3397 (human) (UniProt P29460). The description is as above.
Assay [8] has as its target T1, human recombinant IL-23. As to the kind of experiment: competition ELISA: hIL-23 coated on the plate, 10 nM labeled C1269 mixed with the unlabeled competitor titrated from 3000 nM to 0. As to the method:
[…] of a 20 μg/ml hIL-23 coated on plate, mixed with 10 nM of labeled C1269 and serially diluted from 3000 nM to 0 unlabeled competitors, C1269 and C1249, in 25 μL. Relative binding was calculated by setting the signal in the absence of competitor to 100%.

Another assay concerns the target T4, murine IL-23 (mouse, UniProt Q9EQ14 22-196; P43432 23-335).
T4 construct: also called mouse IL-23
T4 sequence (looked up) 1: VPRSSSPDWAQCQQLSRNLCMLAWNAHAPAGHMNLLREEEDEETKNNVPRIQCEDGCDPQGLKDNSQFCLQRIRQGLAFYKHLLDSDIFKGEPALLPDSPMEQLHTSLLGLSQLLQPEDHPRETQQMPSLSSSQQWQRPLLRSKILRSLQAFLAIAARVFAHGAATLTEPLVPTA
T4 sequence (looked up) 2: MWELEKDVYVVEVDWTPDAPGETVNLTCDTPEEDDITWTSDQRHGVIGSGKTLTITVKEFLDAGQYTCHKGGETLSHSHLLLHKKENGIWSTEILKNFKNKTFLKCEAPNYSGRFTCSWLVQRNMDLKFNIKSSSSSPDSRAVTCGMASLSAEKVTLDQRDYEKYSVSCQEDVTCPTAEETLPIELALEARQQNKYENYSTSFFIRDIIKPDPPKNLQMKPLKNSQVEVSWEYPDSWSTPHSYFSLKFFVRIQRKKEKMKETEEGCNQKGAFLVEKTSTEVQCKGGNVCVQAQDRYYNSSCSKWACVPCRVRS
The assay is described as follows: MSD ELISA: protein coated at 100 to 0 µg/mL, detected with 2 µg/mL Sulfo-TAG labeled mAb. As to the method: One-hundred and fifty μl of 5% MSD Blocker A buffer was added to each well and incubated for 1 hr at room temperature. Plates were washed three times with 0.1 M HEPES buffer, pH 7.4. These protein-charged ELISA micro-wells were incubated with 25 μl of 2 μg/mL MSD Sulfo-TAG labeled C1249, C1269, or CNTO 209 mAbs. After incubation for 2 hours with shaking at room temperature, plates were washed 3 times with 0.1 M HEPES buffer (pH 7.4). MSD Read Buffer T was diluted with distilled water (4 fold) and dispensed at a volume of 150 μl/well and analyzed with a SECTOR imager 6000.

B1: Soluble IL-23R (IL-23R-Fc) (Fc fusion, UniProt Q5VWK5 24-353, looked up, not shown: a dimerising Fc or GST)
chain: GITNINCSGHIWVEPATIFKMGMNISIYCQAAIKNCQPRKLHFYKNGIKERFQITRINKTTARLWYKNFLEPHASMYCTAECPKHFQETLICGKDISSGYPPDIPDEVTCVIYEYSGNMTCTWNAGKLTYIDTKYVVHVKSLETEEEQQYLTSSYINISTDSLQGGKKYLVWVQAANALGMEESKQLQIHLDDIVIPSAAVISRAETINATVPKTIIYWDSQTTIEKVSCEMRYKATTNQTWNVKEFDTNFTYVQQSEFYLEPNIKYVFQVRCQETGKRYWQPWSSLFFHKTPETVPQVTSKAFQHDTWNSGLTVASISTGHLTSDNRGD
Take B1: the “IC50 (read off the curve)” value is ~0.05 µg/mL in the assay with human recombinant IL-23 [1] and ~0.04 µg/mL in the assay with human recombinant IL-23 [2].

B2: C1275 (antibody, V domains shown)
VH: EVNLEESGGGLVQPGRSMKLSCVASGFTFSNYWMTWVRQSPEKGLEWVAEIRLKSNNYATHYAESVKGRFTISRDDSKSSVYLQMNNLRAEDTAIYYCTRGGGYDVGAWFAYWGQGTLVTVSA
VL: DIVLTQSPASLAVSLGQRATISCRASENVEYYGTGLIQWYQQKPGQPPKLLIYASSNVESGVPARFSGSGSGTDFSLYIHPVEEDDIAMYFCQQSRKVPSTFGGGTKLEIK
notes: Purified mouse monoclonal antibody; also called IL-23p19 mAb; mouse anti-human IL-23 mAb
Consider B2, for which the binding result is “binds” with human recombinant IL-23 [3], “no binding (tested: 100 ng/ml)” with human recombinant IL-12 and “no binding (tested: 100 ng/ml)” in [4].

B3: C1269 (antibody, V domains shown)
VH: DVNLVESGGGLVKPGGSLKLSCAASGFTFSSYTMSWVRQTPEKRLEWVATISSGGTYTYYPDSVKGRFTISRDNAKNTLYLQMSSLKSEDTAIFYCTRDNHAYDRGPFFDSWGQGATLTVSS
VL: DIVMSQSPSSLAVSVGEKVTMSCKSSQNLFYRNNQKNYLAWYQQKPGQSPTLLIYWTSTRESGVPDRFTGSGSGTDFTLTISRVKAEDLAVYYCQQYYSYPPTFGGGTKLEIK
notes: as for B2
B3: the “IC50 (read off the curve)” value with human recombinant IL-23 [5] is ~0.07 µg/mL; with human recombinant IL-23 [8], ~20 nM. Further, the percent reduction of binding activity against wild-type human IL-23 in [6] was > 80%. This molecule also came in with a percent reduction of binding against wild-type human IL-23 in assay [7] of 90%. Also, the values for the binding result (with human recombinant IL-12; in assay [4]; in the assay with murine IL-23) were “no binding (tested: 100 ng/ml)”, “no binding (tested: 100 ng/ml)” and “no binding”, respectively.

B4: C1273 (antibody, V domains shown)
VH: DVNLVESGGGLVKPGGSLKLSCAASGFTFSSYTMSWVRQTPEKRLEWVATISSGGTYTYYPDSVKGRFTISRDNAKNTLYLQMSSLKSEDTAMFYCTRDNHAYDRGPFFDYWGQGATLTVSS
VL: DIVMSQSPSSLVVSVGEKVTMSCKSSQNLFYRSNQKNHLAWYQQKPGQSPTLLIYWTSTRESGVPDRFTGSGSGTDFTLTISRVKAEDLAVYYCQQYYSYPPTFGGGTKLEIK
notes: as for B2
Take B4: the “IC50 (read off the curve)” value with human recombinant IL-23 [5] is ~0.1 µg/mL. Moreover, the binding result (in the assay with human recombinant IL-12; in [4]) was “no binding (tested: 100 ng/ml)” in each case.

B5: C1249 (antibody, V domains shown)
VH: EVQLVESGGGLVQPKGSLKLSCAASGFNFNTYAMHWVCQAPGKGLEWIGRIRSKSHNYATDYADPVKDRFTISRDDSQGLLYLLMNNLKTEDTAMYYCMREGIYGSFAYWGQGTLVTVSA
VL: DIVLTQSPASLAVSLGQRATISCRASKSVSSSAYSFFHWYQQKPGQPPKLLIYLASNLQSGVPARFSGSGSGTDFTLNIHPVEAEDAATYYCQHSGELPFTFGSGTKLEIK
notes: as for B2
Turning to B5, the binding result with human recombinant IL-23 [3] is “binds”; with human recombinant IL-12, “no binding (tested: 100 ng/ml)”; in assay [4] it was “no binding (tested: 100 ng/ml)”; with murine IL-23 it was “no binding”. The percent reduction of binding activity against wild-type human IL-23 in assay [6] is > 80%. Moreover, the percent reduction of binding against wild-type human IL-23 in [7] is 95%.

The values above are taken from patent US20200138943A1 (Janssen / Centocor, published 2020).
